Legend:
[1] = system: synapsin (isoaspartyl-converted, positive control)
[2] = target: HuD N-terminal fragment (1-117) in which the 8 N and D residues in the 36-amino acid flexible region were mutated to Q and E (UniProt P26378)
[3] = target: native recombinant HuD N-terminal fragment (amino acids 1-117, wildtype, day 0, not converted) (UniProt P26378)
[4] = target: in vitro isoaspartyl-converted recombinant HuD N-terminal fragment (amino acids 1-117, wildtype) (UniProt P26378)
[5] = target: HuD RRM1 lacking the N-terminal 36 amino acids (37-117 aa) (UniProt P26378)
Chain of HuD RRM1 lacking the N-terminal 36 amino acids (37-117 aa) (P26378 37-117): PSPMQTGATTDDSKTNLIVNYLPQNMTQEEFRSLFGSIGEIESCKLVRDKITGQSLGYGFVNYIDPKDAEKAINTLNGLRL

Chain of in vitro isoaspartyl-converted recombinant HuD N-terminal fragment (amino acids 1-117, wildtype) (P26378 whole entry, looked up, the tested form may be a part): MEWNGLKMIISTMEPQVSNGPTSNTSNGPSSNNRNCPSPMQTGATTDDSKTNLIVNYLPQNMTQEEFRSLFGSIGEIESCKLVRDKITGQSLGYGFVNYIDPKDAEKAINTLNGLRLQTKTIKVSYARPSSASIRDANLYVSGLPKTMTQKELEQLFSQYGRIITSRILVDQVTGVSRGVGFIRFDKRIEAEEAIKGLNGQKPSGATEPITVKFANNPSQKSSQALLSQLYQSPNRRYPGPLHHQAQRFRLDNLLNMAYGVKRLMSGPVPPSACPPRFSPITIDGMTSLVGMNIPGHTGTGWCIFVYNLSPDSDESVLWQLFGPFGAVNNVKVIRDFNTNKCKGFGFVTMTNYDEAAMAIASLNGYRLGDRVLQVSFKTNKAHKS
Chain of native recombinant HuD N-terminal fragment (amino acids 1-117, wildtype, day 0, not converted) (P26378 other isoform, or with tags, fused parts or gaps): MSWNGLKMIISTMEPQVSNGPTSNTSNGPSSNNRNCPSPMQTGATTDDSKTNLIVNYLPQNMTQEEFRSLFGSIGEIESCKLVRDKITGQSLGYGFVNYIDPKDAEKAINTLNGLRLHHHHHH
Chain of HuD N-terminal fragment (1-117) in which the 8 N and D residues in the 36-amino acid flexible region were mutated to Q and E (P26378 other isoform, or with tags, fused parts or gaps, change not shown): as the sequence (P26378 other isoform, or with tags, fused parts or gaps) above

With “recombinant rat protein-L-isoaspartyl methyltransferase (PIMT)” the “PIMT-catalyzed [3H]-methyl incorporation from [3H]-AdoMet (autoradiography)” value (“PIMT-catalyzed [3H]-methyl incorporation” below) [1] was “Isoaspartyl-converted synapsin and HuD were visualized by methylation with [3H]-AdoMet by PIMT”, the “on-blot methylation with [3H]-AdoMet by PIMT” value [2] was “Only the Day 3 and Day 7 samples from the original 117 amino acid fragment show above background labeling” and the “PIMT-catalyzed [3H]-methyl incorporation” value [3] was “HuD exhibited no reactivity at Day 0”. For the same substance, the “PIMT-catalyzed [3H]-methyl incorporation” value [4] was “followed by a strong increase in PIMT-mediated methylation over the seven day incubation” and the “on-blot methylation with [3H]-AdoMet by PIMT” value [5] was “the RRM1 domain alone shows no signal above background when incubated under isoaspartylation conditions and then subjected to PIMT modification”.

From patent US20150232539
